Test results taken from patent US20070244040.

B1: caspase 6 (protein)
chain: AFYKREMFDPAEKYKMDHRRRGIALIFNHERFFWHLTLPERRGTCADRDNLTRRFSDLGFEVKCFNDLKAEELLLKIHEVSTVSHADADCFVCVFLSHGEGNHIYAYDAKIEIQTLTGLFKGDKCHSLVGKPKIFIIQACRGNQHDVPVIPLDVVDNQTEKLDTNITEVDAASVYTLPAGADFLMCYSVAEGYYSHRETVNGSWYIQDLCEMLGKYGSSLEFTELLTLVNRKVSQRRVDFCKDPSAIGKKQVPCFASMLTKKLHFFPKSN
B2: caspase 7 (protein)
chain: AKPDRSSFVPSLFSKKKKNVTMRSIKTTRDRVPTYQYNMNFEKLGKCIIINNKNFDKVTGMGVRNGTDKDAEALFKCFRSLGFDVIVYNDCSCAKMQDLLKKASEEDHTNAACFACILLSHGEENVIYGKDGVTPIKDLTAHFRGDRCKTLLEKPKLFFIQACRGTELDDGIQADSGPINDTDANPRYKIPVEADFLFAYSTVPGYYSWRSPGRGSWFVQALCSILEEHGKDLEIMQILTRVNDRVARHFESQSDDPHFHEKKQIPCVVSMLTKELYFSQ
B3: caspase 3 (protein)
chain: SGISLDNSYKMDYPEMGLCIIINNKNFHKSTGMTSRSGTDVDAANLRETFRNLKYEVRNKNDLTREEIVELMRDVSKEDHSKRSSFVCVLLSHGEEGIIFGTNGPVDLKKITNFFRGDRCRSLTGKPKLFIIQACRGTELDCGIETDSGVDDDMACHKIPVEADFLYAYSTAPGYYSWRNSKDGSWFIQSLCAMLKQYADKLEFMHILTRVNRKVATEFESFSFDATFHAKKQIPCIVSMLTKELYFYH
B4: caspase 9 (protein)
chain: MDEADRRLLRRCRLRLVEELQVDQLWDALLSRELFRPHMIEDIQRAGSGSRRDQARQLIIDLETRGSQALPLFISCLEDTGQDMLASFLRTNRQAAKLSKPTLENLTPVVLRPEIRKPEVLRPETPRPVDIGSGGFGDVGALESLRGNADLAYILSMEPCGHCLIINNVNFCRESGLRTRTGSNIDCEKLRRRFSSLHFMVEVKGDLTAKKMVLALLELAQQDHGALDCCVVVILSHGCQASHLQFPGAVYGTDGCPVSVEKIVNIFNGTSCPSLGGKPKLFFIQACGGEQKDHGFEVASTSPEDESPGSNPEPDATPFQEGLRTFDQLDAISSLPTPSDIFVSYSTFPGFVSWRDPKSGSWYVETLDDIFEQWAHSEDLQSLLLRVANAVSVKGIYKQMPGCFNFLRKKLFFKTS
B5: caspase 8 (protein)
chain: SESQTLDKVYQMKSKPRGYCLIINNHNFAKAREKVPKLHSIRDRNGTHLDAGALTTTFEELHFEIKPHDDCTVEQIYEILKIYQLMDHSNMDCFICCILSHGDKGIIYGTDGQEAPIYELTSQFTGLKCPSLAGKPKVFFIQACQGDNYQKGIPVETDSEEQPYLEMDLSSPQTRYIPDEADFLLGMATVNNCVSYRNPAEGTWYIQSLCQSLRERCPRGDDILTILTEVNYEVSNKDDKKNMGKQMPQPTFTLRKKLVFPSD

Molecular target: T1, Livin α
T1 chain: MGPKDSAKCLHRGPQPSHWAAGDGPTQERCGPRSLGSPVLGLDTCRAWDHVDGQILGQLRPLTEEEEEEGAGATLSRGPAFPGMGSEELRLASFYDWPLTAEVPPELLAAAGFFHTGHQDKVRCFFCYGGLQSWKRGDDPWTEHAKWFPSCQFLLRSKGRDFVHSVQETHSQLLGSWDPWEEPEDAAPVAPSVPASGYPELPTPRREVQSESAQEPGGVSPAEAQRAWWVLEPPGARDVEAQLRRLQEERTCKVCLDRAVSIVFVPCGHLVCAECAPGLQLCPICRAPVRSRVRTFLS

Protein | in vitro cleavage of in vitro translated protein, Western blot
B1 | it did not cleave any of the Livin isoforms that were translated in eukaryotic in vitro system
B2 | underwent cleavage similar to the wild-type protein by caspase 3 and 7
B3 | underwent cleavage similar to the wild-type protein by caspase 3 and 7

Molecular target: T2, 6×His-Livin β
T2 chain: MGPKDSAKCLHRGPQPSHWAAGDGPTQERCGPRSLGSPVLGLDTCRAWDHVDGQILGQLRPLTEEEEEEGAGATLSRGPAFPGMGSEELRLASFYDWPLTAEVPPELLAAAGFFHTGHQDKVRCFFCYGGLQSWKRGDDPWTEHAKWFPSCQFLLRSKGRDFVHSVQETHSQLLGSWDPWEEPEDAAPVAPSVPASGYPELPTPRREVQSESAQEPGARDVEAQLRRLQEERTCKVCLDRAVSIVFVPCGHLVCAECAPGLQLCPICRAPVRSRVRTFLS

Protein | in vitro cleavage, Western blot with anti-Livin antibody
B1 | relatively high concentrations of caspase 6 ... cleaved Livin β
B4 | incubation with high concentrations of caspase 9 resulted in a weak cleavage, suggesting that caspase 9 might cleave Livin with a very low affinity
B2 | The most efficient cleavage was observed when caspase 7 was used, resulting in the complete cleavage of the recombinant Livin β
B3 | effector caspases 3, 7, and relatively high concentrations of caspase 6, but not the initiator caspases 8 and 9, cleaved Livin β
B5 | Treatment of recombinant Livin α and β with caspase 8 had no effect even when 90 units of this enzyme were used

Molecular target: T3, 6×His-Livin α
T3 chain: T1 chain

Protein | in vitro cleavage, Western blot with anti-Livin antibody
B1 | caspase 6 was not able to cleave Livin at low concentrations (FIG. 4b)
B4 | incubation with high concentrations of caspase 9 resulted in a weak cleavage, suggesting that caspase 9 might cleave Livin with a very low affinity
B2 | In contrast to the marked efficiency of caspase 7, caspase 6 was not able to cleave Livin at low concentrations (FIG. 4b)
B5 | Treatment of recombinant Livin α and β with caspase 8 had no effect even when 90 units of this enzyme were used

Molecular target: T4, Livin β
T4 chain: T2 chain

Protein | in vitro cleavage of in vitro translated protein, Western blot
B1 | it did not cleave any of the Livin isoforms that were translated in eukaryotic in vitro system
B2 | underwent cleavage similar to the wild-type protein by caspase 3 and 7
B3 | underwent cleavage similar to the wild-type protein by caspase 3 and 7
